Data set [1] has as its target L30 E110A (rat, UniProt P62890 1-115, E110A). As to the kind of experiment: EMSA; comparable to WT; 30 mM Tris-HCl pH 8.0, 75 mM KCl, 5 mM MgCl2, 1 mM DTT, 0.04 ug/uL BSA, 10% glycerol, 50 ng/uL yeast tRNA, 30 C 15 min; EMSA gels 0.5X TBE at 4 C; RNase digesti.
The target in data set [2] is L30 V91A (rat, UniProt P62890 1-115, V91A). The description is as above.
Data set [3] addresses L30 L29A (rat, UniProt P62890 1-115, L29A). The data set is described as above.
The target in data set [4] is L30 M108A (rat, UniProt P62890 1-115, M108A). The data set is described as above.
Data set [5] concerns the target L30 K87A (rat, UniProt P62890 1-115, K87A). As to the kind of experiment: EMSA; little effect vs WT; 30 mM Tris-HCl pH 8.0, 75 mM KCl, 5 mM MgCl2, 1 mM DTT, 0.04 ug/uL BSA, 10% glycerol, 50 ng/uL yeast tRNA, 30 C 15 min; EMSA gels 0.5X TBE at 4 C; RNase digesti.
In data set [6] the target is L30 K36A (rat, UniProt P62890 1-115, K36A). As to the kind of experiment: EMSA; reduced by 60%; 30 mM Tris-HCl pH 8.0, 75 mM KCl, 5 mM MgCl2, 1 mM DTT, 0.04 ug/uL BSA, 10% glycerol, 50 ng/uL yeast tRNA, 30 C 15 min; EMSA gels 0.5X TBE at 4 C; RNase digesti.
Data set [7] deals with L30 Y89A (rat, UniProt P62890 1-115, Y89A). As to the kind of experiment: EMSA; L30 at 50% WT binding; 30 mM Tris-HCl pH 8.0, 75 mM KCl, 5 mM MgCl2, 1 mM DTT, 0.04 ug/uL BSA, 10% glycerol, 50 ng/uL yeast tRNA, 30 C 15 min; EMSA gels 0.5X TBE at 4 C; RNase digesti.
Data set [8] concerns the target L30 L35A (rat, UniProt P62890 1-115, L35A). As to the kind of experiment: EMSA; reduced by 14%, significant; 30 mM Tris-HCl pH 8.0, 75 mM KCl, 5 mM MgCl2, 1 mM DTT, 0.04 ug/uL BSA, 10% glycerol, 50 ng/uL yeast tRNA, 30 C 15 min; EMSA gels 0.5X TBE at 4 C; RNase digesti.

Regarding GGGACCGGAGUGUCGCAAGACGCAGAGAUGGUCC (structured_RNA) [L30 RNA (stem-loop of L30 pre-mRNA)], the binding result in data set [1], in data set [2], in data set [3], in data set [4] and in data set [5] was “binds” each time. Further, the figures for the binding signal in data set [6], in data set [7] and in data set [8] were 40 % of WT binding, 37 % of WT binding and 86 % of WT binding, respectively.

Values taken from publication PMC3706390.
